Laboratory results: the supplement of paper PMC9233669
Fewer inactive variants are shown than the library holds.

Tests used:
[1] = tested on: biotinyl-Val-oxazolone; assay: self-aminoacylation, catalytic enhancement (BVO) (fold over background); higher = more active; k-Seq, kA / k0A0; sequences stand for … in GGGAAUGGAUCCACAUCUACGAAUUC…UUCACUGCAGACUUGACGAAGCUG
In short: (§1)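 Mutagenized RNA pools with a 21-nt variable region (0.43 μM) were reacted with each biotinyl-aminoacyl-oxazolone at 2–1250 μM for 90 minutes at room temperature, in 50 μL HEPES/NaCl/KCl/MgCl2/CaCl2 buffer containing 5% acetonitrile at pH 6.9–7.0. RNA captured on streptavidin was quantified by triplicate qPCR and by Illumina sequencing. The fraction reacted for each sequence was fit to a pseudo-first-order model with bootstrapping, and catalytic enhancement is the median kA divided by the uncatalyzed rate, taken as the low-activity peak of a bimodal Gaussian fit.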

[2] = tested on: biotinyl-Leu-oxazolone; assay: self-aminoacylation, catalytic enhancement (BLO) (fold over background); higher = more active; k-Seq, kA / k0A0; sequences stand for … in GGGAAUGGAUCCACAUCUACGAAUUC…UUCACUGCAGACUUGACGAAGCUG
In short: as §1

[3] = tested on: biotinyl-Phe-oxazolone; assay: self-aminoacylation, catalytic enhancement (BFO) (fold over background); higher = more active; k-Seq, kA / k0A0; sequences stand for … in GGGAAUGGAUCCACAUCUACGAAUUC…UUCACUGCAGACUUGACGAAGCUG
In short: as §1

[4] = tested on: biotinyl-Met-oxazolone; assay: self-aminoacylation, catalytic enhancement (BMO) (fold over background); higher = more active; k-Seq, kA / k0A0; sequences stand for … in GGGAAUGGAUCCACAUCUACGAAUUC…UUCACUGCAGACUUGACGAAGCUG
In short: as §1

[5] = tested on: biotinyl-Ile-oxazolone; assay: self-aminoacylation, catalytic enhancement (BIO) (fold over background); higher = more active; k-Seq, kA / k0A0; sequences stand for … in GGGAAUGGAUCCACAUCUACGAAUUC…UUCACUGCAGACUUGACGAAGCUG
In short: as §1

[6] = tested on: biotinyl-Trp-oxazolone; assay: self-aminoacylation, catalytic enhancement (BWO) (fold over background); higher = more active; k-Seq, kA / k0A0; sequences stand for … in GGGAAUGGAUCCACAUCUACGAAUUC…UUCACUGCAGACUUGACGAAGCUG
In short: as §1

| Sequence | self-aminoacylation [1] | self-aminoacylation [2] | self-aminoacylation [3] | self-aminoacylation [4] | self-aminoacylation [5] | self-aminoacylation [6] |
| --- | --- | --- | --- | --- | --- | --- |
| AUUACCCUGGUCAUCGAGUAA [Fam2.1 aminoacylation ribozyme variant] | 10.1 | 26.7 | 118 | 28.9 | 8.7 | 25.3 |
| CCACACUACAAGCAAUCGGUG [Fam1B.1 aminoacylation ribozyme variant] | 2.85 | 6.9 | 31.8 | 4.92 | 3.62 | 5.03 |
| CUAGUUCAAACAAACGGUCUG [Fam1A.1 aminoacylation ribozyme variant] | 0.77 | 0.91 | 0.831 | 0.814 | 0.913 | 0.823 |
| CUACUUCAAACAAACGGACUG [Fam1A.1 aminoacylation ribozyme variant] | 0.718 | 0.546 | 0.548 | 0.473 | 0.684 | 0.574 |
| CUAGUUCAAACAACCGGUCUG [Fam1A.1 aminoacylation ribozyme variant] | 1.2 | 0.965 | 0.987 | 1.05 | 1.23 | 0.982 |
| CUACUUCAAACAAUCGUUCUA [Fam1A.1 aminoacylation ribozyme variant] | 0.801 | 0.559 | 1.08 | 0.545 | 0.582 | 0.631 |
| CUACUACAAACAAUAGGUCUG [Fam1A.1 aminoacylation ribozyme variant] | 0.94 | 0.718 | 0.827 | 0.635 | 0.826 | 0.456 |
| ACACACUUCAAGCAAUGGGUC [Fam1B.1 aminoacylation ribozyme variant] | 0.947 | 0.794 | 1.04 | 1.03 | 0.996 | 1.03 |
| AUUACCCUGGUCAUCUGGUGA [Fam2.1 aminoacylation ribozyme variant] | 2.72 | 5.37 | 31.1 | 5 | 3.08 | 4.53 |
| AUUUCCCUGGUCAUCGAGAGA [Fam2.1 aminoacylation ribozyme variant] | 1.27 | 1.1 | 1.31 | 0.896 | 1.2 | 0.74 |
| CCGCUCUUCAAGCAAUCGGUC [Fam1B.1 aminoacylation ribozyme variant] | 1.76 | 1.92 | 35.5 | 1.6 | 1.42 | 26.3 |
| CCUCACUUUAAGCAAUCGGUC [Fam1B.1 aminoacylation ribozyme variant] | 0.688 | 0.619 | 1.2 | 0.544 | 0.734 | 0.683 |
| AUUCACCUACGGCAUCGGGUG [Fam2.2 aminoacylation ribozyme variant] | 2.7 | 3.86 | 22.2 | 2.91 | 2.29 | 3.22 |
| AUUCACCCUGGUCAUCGGGUG [Fam2.2 aminoacylation ribozyme variant] | 5.5 | 11.5 | 71 | 10.6 | 5.16 | 10.6 |
| AUUAACCUGGUCAUCGAGGGA [Fam2.1 aminoacylation ribozyme variant] | 1.3 | 1.28 | 0.771 | 1.76 | 1.53 | 1.99 |
| UUUACCCUGUUCAUCGAGUGA [Fam2.1 aminoacylation ribozyme variant] | 2.56 | 3.91 | 5.37 | 4.11 | 2.21 | 5.71 |
| AUUACUCUAGUCAUCGAGUGA [Fam2.1 aminoacylation ribozyme variant] | 2.9 | 5.41 | 19.1 | 5.28 | 2.95 | 6.32 |
| CCUCACUUCCAGCAAUCGGUC [Fam1B.1 aminoacylation ribozyme variant] | 1.06 | 0.861 | 1.23 | 0.651 | 1.05 | 0.965 |
| AAGUGUGCUAAUUGUCGCAAG [Fam3.1 aminoacylation ribozyme variant] | 1.49 | 1.51 | 1.56 | 1.45 | 1.5 | 2.65 |
| AUUUACCUUGGUCAUCGGGUG [Fam2.2 aminoacylation ribozyme variant] | 4.81 | 8.83 | 45.7 | 7.16 | 4.48 | 6.6 |
| AUUCACCGAGGGCAUCGGGUG [Fam2.2 aminoacylation ribozyme variant] | 5.15 | 8.06 | 30.9 | 5.18 | 4.62 | 7.83 |
| AUUCACCUAGGUCAUCAGAUG [Fam2.2 aminoacylation ribozyme variant] | 0.872 | 0.928 | 0.715 | 0.656 | 0.857 | 0.522 |
| AUUACCAUAGUCAUCGAGUGA [Fam2.1 aminoacylation ribozyme variant] | 3.89 | 7.53 | 43.4 | 7.07 | 4.32 | 9.11 |
| AUUAGCCUGGGCAUCGAGUGA [Fam2.1 aminoacylation ribozyme variant] | 3.8 | 8.51 | 57.8 | 6.92 | 3.66 | 7.8 |
| AUUCACCUAGGUCAUGGUGUG [Fam2.2 aminoacylation ribozyme variant] | 0.932 | 0.994 | 0.397 | 0.846 | 0.936 | 0.519 |
| CCACACUUCAAGCACUUGGUC [Fam1B.1 aminoacylation ribozyme variant] | 0.65 | 0.818 | 1.03 | 0.775 | 0.816 | 0.616 |

| Sequence | self-aminoacylation [1] | self-aminoacylation [2] | self-aminoacylation [3] | self-aminoacylation [4] | self-aminoacylation [5] | self-aminoacylation [6] |
| --- | --- | --- | --- | --- | --- | --- |
| CCACCCUUCAACCAAUCGGUC [Fam1B.1 aminoacylation ribozyme variant] | 1.47 | 1.44 | 46 | 1.35 | 1.19 | 26.2 |
| CCACACUUCAAGCAGUAGGUC [Fam1B.1 aminoacylation ribozyme variant] | 0.815 | 0.51 | 0.807 | 0.425 | 0.633 | 0.401 |
| AUUCAGCUAGGUCAUCCGGUG [Fam2.2 aminoacylation ribozyme variant] | 5.44 | 8.88 | 44.2 | 6.6 | 5.29 | 8.08 |
| AUCCACCAAGGUCAUCGGGUG [Fam2.2 aminoacylation ribozyme variant] | 6.37 | 10.1 | 68.2 | 9.18 | 5.16 | 7.83 |
| CUAUUUCAAACAAUCGGUCUA [Fam1A.1 aminoacylation ribozyme variant] | 0.588 | 0.571 | 2.12 | 0.634 | 0.713 | 1.15 |
| AUGACCCUGGUCCUCGAGUGA [Fam2.1 aminoacylation ribozyme variant] | 1.77 | 3.2 | 22.1 | 3.2 | 1.88 | 3.81 |
| AAGUGUGCUAUUAGUCGCAAG [Fam3.1 aminoacylation ribozyme variant] | 1.43 | 0.947 | 2.19 | 1.36 | 1.29 | 0.997 |
| AUUACCCUUGUCAUCGAGUAA [Fam2.1 aminoacylation ribozyme variant] | 1.13 | 1.22 | 0.935 | 1.36 | 1.19 | 1.53 |
| GUUACCCGGGUCAUCGAGUGA [Fam2.1 aminoacylation ribozyme variant] | 4.77 | 9.84 | 62.8 | 8.11 | 4.5 | 8.97 |
| ACGUGUGCUAAUAGUCGCAAG [Fam3.1 aminoacylation ribozyme variant] | 1.28 | 1.68 | 4.86 | 1.62 | 1.6 | 1.63 |
| ACUCACCUAGGUCCUCGGGUG [Fam2.2 aminoacylation ribozyme variant] | 4.46 | 5.78 | 37.1 | 5.36 | 5.2 | 8.03 |
| AUUAACCUGGUCAUCGAGUGG [Fam2.1 aminoacylation ribozyme variant] | 1.2 | 2.11 | 2.19 | 1.63 | 1.25 | 2.03 |
| AUUCACCUAGGCAAUCGGGUG [Fam2.2 aminoacylation ribozyme variant] | 2.98 | 4.75 | 35.4 | 3.95 | 2.52 | 3.92 |
| AUUCCCCUAGGUCAUCGCGUG [Fam2.2 aminoacylation ribozyme variant] | 77.6 | 141 | 826 | 102 | 64.1 | 99.5 |
| CCACAUUUCAAGCAUUCGGUC [Fam1B.1 aminoacylation ribozyme variant] | 1.96 | 1.64 | 1.3 | 1.65 | 1.92 | 1.56 |
| AAGAUUGCUAAUAGUCGCAAG [Fam3.1 aminoacylation ribozyme variant] | 1.31 | 1.33 | 4.83 | 1.32 | 1.53 | 2.15 |
| AUUCGCCUAGGUCAGCGGGUG [Fam2.2 aminoacylation ribozyme variant] | 3.96 | 5.95 | 37.8 | 5.21 | 3.91 | 5.11 |
| UUUACCGUGGUCAUCGAGUGA [Fam2.1 aminoacylation ribozyme variant] | 3.63 | 5.18 | 17.7 | 5.63 | 3.2 | 7.07 |
| CUACUUCAAAAAAUCCGUCUG [Fam1A.1 aminoacylation ribozyme variant] | 0.945 | 0.682 | 1.02 | 0.854 | 0.834 | 0.897 |
| CUACUUCUAUCAAUCGGUCUG [Fam1A.1 aminoacylation ribozyme variant] | 0.63 | 0.554 | 0.796 | 0.636 | 0.7 | 0.493 |
| CAGUUUGCUAAUAGACGCAAG [Fam3.1 aminoacylation ribozyme variant] | 0.858 | 0.895 | 1.08 | 0.814 | 0.91 | 1.61 |
| AAGUUGGCUAAUAGUUGCAAG [Fam3.1 aminoacylation ribozyme variant] | 1.29 | 1.09 | 1.86 | 1.53 | 1.39 | 1.92 |
| AUUUCCCUGGUCAUCGAGUGG [Fam2.1 aminoacylation ribozyme variant] | 3.99 | 8.26 | 12 | 7.95 | 3.66 | 7.09 |
| AAGUUUGAUAAUAGACGCAAG [Fam3.1 aminoacylation ribozyme variant] | 0.418 | 0.311 | 0.787 | 0.346 | 0.364 | 0.331 |
| GCACACUACAAGCAAUCGGUC [Fam1B.1 aminoacylation ribozyme variant] | 1.26 | 1.14 | 1.55 | 0.979 | 1.36 | 1.68 |
